Test results published in patent US7588931B2, “High arachidonic acid producing strains of Yarrowia lipolytica” (E. I. du Pont de Nemours and Company, priority 2004, dated 2009).

Experiments:
[1] = test system: β-glucuronidase (GUS) reporter; assay: Comparative analysis of promoters by fluorometric assay of GUS expression; assay type: cell-based, Yarrowia lipolytica; settings: for GUS activity relative to the GPD promoter: ATCC #76982 strains, FIG. 6A
Method: GUS activity was also assayed by fluorometric determination of the production of 4-methylumbelliferone (4-MU) from the corresponding substrate β-glucuronide (Jefferson, R. A. Plant Mol. Biol. Reporter 5:387-405 (1987)).
Yarrowia lipolytica ATCC #76982 strains containing plasmids pY5-30, PYZGDG, PYZGMG, pDMW212 and pDMW214 were grown from single colonies in 3 mL MM (as described above) at 30° C. to an OD600˜1.0. Then, the 3 mL cultures were each added to a 500 mL flask containing 50 mL MM and grown in a shaking incubator at 30° C. for about 24 hrs. The cells were collected by centrifugation, resuspended in Promega Cell Lysis Buffer and lysed using the BIO 101 Biopulverizer system (Vista, Calif.). After centrifugation, the supernatants were removed and kept on ice.
Similarly, Y. lipolytica strain Y2034 containing plasmids pY5-30, pYAT-GUS, pYGPAT-GUS and pDMW214 constructs, respectively, were grown from single colonies in 10 mL SD medium at 30° C. for 48 hrs to an OD600˜5.0. Two mL of each culture was collected for GUS activity assays, as described below, while 5 mL of each culture was switched into HGM.
Specifically, cells from the 5 mL aliquot were collected by centrifugation, washed once with 5 mL of HGM and resuspended in HGM. The cultures in HGM were then grown in a shaking incubator at 30° C. for 24 hrs. Two mL of each HGM culture were collected for the GUS activity assay, while the remaining culture was allowed to grow for an additional 96 hrs before collecting an additional 2 mL of each culture for the assay.
Each 2 mL culture sample in SD medium was resuspended in 1 mL of 0.5× cell culture lysis reagent (Promega). Resuspended cells were mixed with 0.6 mL of glass beads (0.5 mm diameter) in a 2.0 mL screw cap tube with a rubber O-ring. The cells were then homogenized in a Biospec mini beadbeater (Bartlesville, Okla.) at the highest setting for 90 sec. The homogenization mixtures were centrifuged for 2 min at 14,000 rpm in an Eppendof centrifuge to remove cell debris and beads. The supernatant was used for GUS assay and protein determination.
For each fluorometric assay, 100 μl of extract was added to […] of GUS assay buffer (2 mM 4-methylumbelliferyl-β-D-glucuronide (“MUG”) in extraction buffer) or 200 μl of extract was added to 800 μl of GUS assay buffer. The mixtures were placed at 37° C. Aliquots of 100 μl were taken at 0, 30 and 60 min time points and added to 900 μl of stop buffer (1 M Na2CO3). Each time point was read using a CytoFluor Series 4000 Fluorescence Multi-Well Plate Reader (PerSeptive Biosystems, Framingham, Mass.) set to an excitation wavelength of 360 nm and an emission wavelength of 455 nm. Total protein concentration of each sample was determined using 10 μl of extract and 200 μl of BioRad Bradford reagent or 20 μl of extract and 980 μl of BioRad Bradford reagent (Bradford, M. M. Anal. Biochem. 72:248-254 (1976)). GUS activity was expressed as nmoles of 4-MU per minute per mg of protein.

[2] = test system: β-glucuronidase (GUS) reporter; assay: Relative promoter activity rank from comparative GUS reporter studies (histochemical, fluorometric and/or Real Time PCR); assay type: cell-based, Yarrowia lipolytica; design: key: a ‘1’ corresponds to the promoter with lowest activity; a ‘7’ corresponds to the promoter with highest activity; settings: relative to other promoters
In short: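 GUS activity from each promoter construct was measured by histochemical and/or fluorometric assays and/or Real Time PCR. Promoters were ranked relative to one another, from 1 (lowest activity) to 7 (highest activity).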

B1: FBA: Y. lipolytica fructose-bisphosphate aldolase promoter, SEQ ID NO:161 (nucleic acid, listed as Yarrowia lipolytica)
DNA: TAAACAGTGTACGCAGTACTATAGAGGAACAATTGCCCCGGAGAAGACGGCCAGGCCGCCTAGATGACAAATTCAACAACTCACAGCTGACTTTCTGCCATTGCCACTAGGGGGGGCCTTTTTATATGGCCAAGCCAAGCTCTCCACGTCGGTTGGGCTGCACCCAACAATAAATGGGTAGGGTTGCACCAACAAAGGGATGGGATGGGGGGTAGAAGATACGAGGATAACGGGGCTCAATGGCACAAATAAGAACGAATACTGCCATTAAGACTCGTGATCCAGCGACTGACACCATTGCATCATCTAAGGGCCTCAAAACTACCTCGGAACTGCTGCGCTGATCTGGACACCACAGAGGTTCCGAGCACTTTAGGTTGCACCAAATGTCCCACCAGGTGCAGGCAGAAAACGCTGGAACAGCGTGTACAGTTTGTCTTAACAAAAAGTGAGGGCGCTGAGGTCGAGCAGGGTGGTGTGACTTGTTATAGCCTTTAGAGCTGCGAAAGCGCGTATGGATTTGGCTCATCAGGCCAGATTGAGGGTCTGTGGACACATGTCATGTTAGTGTACTTCAATCGCCCCCTGGATATAGCCCCGACAATAGGCCGTGGCCTCATTTTTTTGCCTTCCGCACATTTCCATTGCTCGGTACCCACACCTTGCTTCTCCTGCACTTGCCAACCTTAATACTGGTTTACATTGACCAACATCTTACAAGCGGGGGGCTTGTCTAGGGTATATATAAACAGTGGCTCTCCCAATCGGTTGCCAGTCTCTTTTTTCCTTTCTTTCCCCACAGATTCGAAATCTAAACTACACATCACACAATGCCTGTTACTGACGTCCTTAAGCGAAAGTCCGGTGTCATCGTCGGCGACGATGTCCGAGCCGTGAGTATCCACGACAAGATCAGTGTCGAGACGACGCGTTTTGTGTAATGACACAATCCGAAAGTCGCTAGCAACACACACTCTCTACACAAACTAACCCAGCTCTCC
modifications: misc_feature: Promoter FBA
B1 was tested, and the “GUS activity relative to the GPD promoter” value [1] was 2.2 times and the “Activity “Rank”” value [2] was 4.

B2: FBAIN: fructose-bisphosphate aldolase + intron promoter, SEQ ID NO:162 (nucleic acid, listed as Yarrowia lipolytica)
DNA: AAATTGCCCCGGAGAAGACGGCCAGGCCGCCTAGATGACAAATTCAACAACTCACAGCTGACTTTCTGCCATTGCCACTAGGGGGGGGCCTTTTTATATGGCCAAGCCAAGCTCTCCACGTCGGTTGGGCTGCACCCAACAATAAATGGGTAGGGTTGCACCAACAAAGGGATGGGATGGGGGGTAGAAGATACGAGGATAACGGGGCTCAATGGCACAAATAAGAACGAATACTGCCATTAAGACTCGTGATCCAGCGACTGACACCATTGCATCATCTAAGGGCCTCAAAACTACCTCGGAACTGCTGCGCTGATCTGGACACCACAGAGGTTCCGAGCACTTTAGGTTGCACCAAATGTCCCACCAGGTGCAGGCAGAAAACGCTGGAACAGCGTGTACAGTTTGTCTTAACAAAAAGTGAGGGCGCTGAGGTCGAGCAGGGTGGTGTGACTTGTTATAGCCTTTAGAGCTGCGAAAGCGCGTATGGATTTGGCTCATCAGGCCAGATTGAGGGTCTGTGGACACATGTCATGTTAGTGTACTTCAATCGCCCCCTGGATATAGCCCCGACAATAGGCCGTGGCCTCATTTTTTTGCCTTCCGCACATTTCCATTGCTCGGTACCCACACCTTGCTTCTCCTGCACTTGCCAACCTTAATACTGGTTTACATTGACCAACATCTTACAAGCGGGGGGCTTGTCTAGGGTATATATAAACAGTGGCTCTCCCAATCGGTTGCCAGTCTCTTTTTTCCTTTCTTTCCCCACAGATTCGAAATCTAAACTACACATCACACAATGCCTGTTACTGACGTCCTTAAGCGAAAGTCCGGTGTCATCGTCGGCGACGATGTCCGAGCCGTGAGTATCCACGACAAGATCAGTGTCGAGACGACGCGTTTTGTGTAATGACACAATCCGAAAGTCGCTAGCAACACACACTCTCTACACAAACTAACCCAGCTCTCC
modifications: misc_feature: Promoter FBAIN
In the case of B2, the “GUS activity relative to the GPD promoter” value [1] is reported as “about 6.6 times”, the GUS activity ([1]; strain Y2034, 24 hr, HGM) is reported as 30.694 nmoles of 4-MU per minute per mg of protein and the GUS activity ([1]; strain Y2034, 48 hr, SD) is reported as 43.333 nmoles of 4-MU per minute per mg of protein. For the same molecule, the GUS activity ([1]; strain Y2034, 120 hr HGM) was 17.200 nmoles of 4-MU per minute per mg of protein, the “reduction of promoter activity” value ([1]; switched from SD medium into HGM for 24 hrs) was 30% and the “Activity “Rank”” value [2] was 7.
